Positions count from the first letter of the chain named.
How the values were obtained:
[1] = target: T1, Tau 407-423 peptide (non-truncated Asp421 epitope); test: Biacore (SPR), peptide as analyte
T1 construct: Immobilized in the ELISA, analyte in the Biacore analysis
T1 peptide: HLSNVSSTGSIDMVDSP

[2] = target: T2, Tau 407-421 peptide (Truncated Asp421 Epitope of Tau); test: Biacore (SPR), peptide as analyte
T2 construct: Immobilized in the ELISA, analyte in the Biacore analysis
T2 peptide: HLSNVSSTGSIDMVD

[3] = target: T1, Tau 407-423 peptide (non-truncated …); test: Biacore, peptide as analyte
[4] = target: T1, Tau 407-423 peptide (non-truncated …); test: ELISA, immobilized peptide
Source text: (§1) The data thus confirms the ability of Antibodies 1G11A10, 5G2A3 and 5G2G6 to immunospecifically bind to the Truncated Asp421 Epitope of Tau.

[5] = target: T2, Tau 407-421 peptide (Truncated Asp421 …); test: ELISA
Source text: as §1

B1: Antibody 5G2A3 (antibody, V domains shown)
VH: EVKLVESGGGLVKPGGSLTLSCAASGFTFSSYAMSWVRQTPEKSLEWVASISSGGNTFYPDTVKGRFTISRDNARNILYLQMSGLRSEDTAIYYCARRGDPNMITTLFGYWGQGTLVTISA
VL: DVLMTQTPLSLPVSLGDQASISCRSSQSILHRNGNTYLDWFLLKPGQSPKLLIYKVSNRFSGVPDRFSGSGSGTDFTLKISRVEAEDLGVYYCFQGSHVPWTFGGGTKLEIK
notes: Hybridoma-derived monoclonal antibody; also called 5G2A3/5G2G6
B1 was tested, and the Kd [1] was 5070 nM and the Kd [2] was 7.46 nM.

B2: Antibody 1G11A10 (antibody, V domains shown)
VH: EVKLVESGGGLMKPGGSLKLSCAASGFTFSSYAMSWVRQSPEKRLEWVASISSGGQTYSPDSVKGRFTISRDNARNILYLQMRNLRSEDTAMYYCASRGDPTMTATLFVYWGQGTLVTVS
VL: B1 VL with L30I, H31N, R32S, D39E, F41Y, L43Q, A85T, V90I
notes: Hybridoma-derived monoclonal antibody
With B2 the Kd [2] was 1070 nM and the binding result [3] was “no binding”.

B3: Antibody 1G10D2 (antibody, V domains shown)
VH: EVKLVESGGDLVTPGGSLKVSCAASGLTFSDSAMSWVRLTPEKRLEWVASISTGGATYYPDGLKGRFTISRDDARNILFLQMNSLRSEDTAMYYCTRRGVSSGNLFTYWGQGTLVTVSA
VL: B1 VL with H31N, R32S, D39E, F41Y, L43Q
B3: no binding [4]; binds [5].

B4: Antibody 5B3C11 (antibody, V domains shown)
VH: EVQLVESGGGLVKPGGSLKLSCAASGFTFSNYALSWVRQTPEKRLEWVASISSGGNTYYPDSVKGRFTISRDNARNILYLQMSSLRSEDTAMFYCTSRGDTTLITTLFTYWGQGTLVTVSA
VL: B1 VL with S26N, R32S, F41Y, L43Q, K79R, V99I
notes: Tested as hybridoma culture supernatant
B4: no binding [4].
